For assay [1], the target named is T1, recombinant human ADAMTS5 (R&D Systems cat #2198-AD) (human, UniProt Q9UNA0 262-622, limits assumed).
T1 sequence: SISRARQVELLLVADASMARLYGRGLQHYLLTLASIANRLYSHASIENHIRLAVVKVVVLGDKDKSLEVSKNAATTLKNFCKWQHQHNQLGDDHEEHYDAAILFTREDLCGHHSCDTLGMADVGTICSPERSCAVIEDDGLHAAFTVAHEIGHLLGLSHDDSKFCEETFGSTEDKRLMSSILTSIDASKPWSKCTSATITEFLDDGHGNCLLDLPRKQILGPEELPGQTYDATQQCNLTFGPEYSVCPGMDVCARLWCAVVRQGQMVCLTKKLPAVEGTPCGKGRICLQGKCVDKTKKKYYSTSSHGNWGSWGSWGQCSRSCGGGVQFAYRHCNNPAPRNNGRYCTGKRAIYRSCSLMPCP
Briefly: cell-based or functional assay.

For assay [2], the target named is T1, recombinant human ADAMTS5 (R&D Systems …). Nature of the assay: cell-based or functional assay. The source holds these as a separate data set.
Assay [3] concerns the target T2, cynomolgus monkey recombinant ADAMTS5 (cynomolgus monkey, UniProt Q9UNA0 262-622 (human entry), limits assumed).
T2 chain: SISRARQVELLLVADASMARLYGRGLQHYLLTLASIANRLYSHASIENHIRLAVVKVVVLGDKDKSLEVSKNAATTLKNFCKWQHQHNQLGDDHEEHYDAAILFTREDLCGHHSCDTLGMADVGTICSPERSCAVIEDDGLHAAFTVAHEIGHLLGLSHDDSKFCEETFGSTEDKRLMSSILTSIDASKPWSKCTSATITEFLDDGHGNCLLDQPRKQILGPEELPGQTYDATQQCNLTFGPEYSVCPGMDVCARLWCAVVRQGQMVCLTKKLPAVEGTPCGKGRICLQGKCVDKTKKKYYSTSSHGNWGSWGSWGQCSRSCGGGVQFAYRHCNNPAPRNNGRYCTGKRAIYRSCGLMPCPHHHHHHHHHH
Nature of the assay: cell-based or functional assay.

Assay [4] addresses T3, guinea pig recombinant ADAMTS5 (guinea pig).
T3 chain: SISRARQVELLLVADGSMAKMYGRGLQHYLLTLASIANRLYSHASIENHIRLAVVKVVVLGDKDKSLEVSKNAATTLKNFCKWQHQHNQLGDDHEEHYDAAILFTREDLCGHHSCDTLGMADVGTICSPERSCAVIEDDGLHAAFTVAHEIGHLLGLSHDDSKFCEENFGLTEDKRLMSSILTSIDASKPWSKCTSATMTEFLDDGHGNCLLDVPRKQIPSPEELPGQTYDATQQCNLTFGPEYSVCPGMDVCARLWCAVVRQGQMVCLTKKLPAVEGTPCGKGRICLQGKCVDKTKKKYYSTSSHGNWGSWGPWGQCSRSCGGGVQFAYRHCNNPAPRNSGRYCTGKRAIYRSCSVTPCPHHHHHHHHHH
Briefly: cell-based or functional assay.

For assay [5], the target named is T1, recombinant human ADAMTS5 (R&D Systems …). Briefly: SPR kinetics, Biacore T100, ADAMTS5 immobilised. The protocol:
(§1) For referencing, affinity for human ADAMTS5 was also determined. Thereto, rat and human ADAMTS5 were immobilized onto a CM5 chip via amine coupling, using EDC and NHS chemistry. Purified Nanobodies were injected for 2 minutes at different concentrations (between 1 and 1000 nM) and allowed to dissociate for 25 min at a flow rate of 45 μl/min. The kinetic constants were calculated from the sensorgrams using the BIAEvaluation software (1:1 interaction).

The target in assay [6] is T4, rat recombinant ADAMTS5 (rat, UniProt Q9R001 262-618 (mouse entry)).
T4 construct: in house, HEK293, His tag in the entry
T4 chain: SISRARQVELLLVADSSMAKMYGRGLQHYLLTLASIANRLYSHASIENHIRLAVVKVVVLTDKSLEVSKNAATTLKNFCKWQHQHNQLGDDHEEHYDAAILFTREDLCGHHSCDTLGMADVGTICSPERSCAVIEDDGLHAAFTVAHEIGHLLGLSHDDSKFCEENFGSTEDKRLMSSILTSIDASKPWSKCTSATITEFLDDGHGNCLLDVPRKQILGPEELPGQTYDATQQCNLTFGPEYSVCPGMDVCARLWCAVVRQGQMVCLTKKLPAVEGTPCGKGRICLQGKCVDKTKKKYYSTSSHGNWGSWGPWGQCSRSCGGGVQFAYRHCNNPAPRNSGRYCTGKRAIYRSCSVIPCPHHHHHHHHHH
Briefly: SPR kinetics, Biacore T100, ADAMTS5 immobilised. The protocol: as §1

In assay [7] the target is T1, recombinant human ADAMTS5 (R&D Systems …). Nature of the assay: SPR off-rate, Biacore T100, ADAMTS5 immobilised, experiment 1. The protocol: (§2) Species cross-reactivity was initially evaluated via SPR-based off-rate analysis on a Biacore T100 instrument. Nanobodies were tested for binding to human, cynomolgus monkey (“cyno”), guinea pig, mouse, and bovine ADAMTS5. To this end, recombinant ADAMTS5 was immobilized onto a CM5 chip via amine coupling using EDC and NHS. Purified Nanobodies were injected for 2 minutes at a concentration of 100 nM and allowed to dissociate for 15 min at a flow rate of 45 ul/min. Off-rate for each individual Nanobody was determined by fitting a 1:1 interaction model (Langmuir model) onto the individual dissociation curves using the BIA Evaluation software. As a reference, off-rates on human ADAMTS5 were determined in each experiment.
(In general: SPR reads the build-up and loss of mass on a sensor chip optically.)

The target in assay [8] is T2, cynomolgus monkey recombinant ADAMTS5. The assay is described as above. How it is done: as §2
Assay [9] concerns the target T3, guinea pig recombinant ADAMTS5. The description is as above. The protocol: as §2

Here are results for two molecules from patent US20200317802A1 (Merck KGaA, published 2020).

Positions count from the first letter of the chain named.

B1: Nanobody 2A12 (VHH)
VHH: EVQLVESGGGLVQAGGSLRLSCAASGRTFSSYAMGWFRQAPGKERDFVAGISRSAGRTYYVDSVKGRFTISRDSAKNTVYLQMNRLKPEDTAVYYCAADLDPNRIFSRDEAAYWGQGTLVTVSS
notes: tagged as tested (anti-Flag detection, IMAC); also called 02A12
Turning to B1, in assay [1], the “Human AlphaLISA % inhibition” value turned out to be 100%. Besides, the “Human AlphaLISA IC50” value in assay [1] turned out to be 150 pM. The “AlphaLISA potency IC50, Human” value in assay [2] was determined as 150 pM. Moreover, the “AlphaLISA potency IC50, Cyno” value in assay [3] was found to be 190 pM. Also, in assay [4], the “AlphaLISA potency IC50, Guinea pig” value was determined as 530 pM. The dissociation constant Kd is 1.9 nM in assay [5] and 1 nM in [6]. For the same molecule, the koff in assay [7] is 0.00014 s⁻¹; in [8], 0.0001 s⁻¹; in assay [9], 0.00012 s⁻¹.

B2: Nanobody 2F03 (VHH)
VHH: B1 VHH with F29V, Q39L, D46E, G56E, V64L, Q82H, D109E, A111Y
notes: tagged as tested (anti-Flag detection, IMAC); also called 02F03; 2F3
As for B2, the “Human AlphaLISA % inhibition” value in [1] worked out at 100%. Further, the “Human AlphaLISA IC50” value in assay [1] worked out at 75 pM. Moreover, the “AlphaLISA potency IC50, Human” value in assay [2] is 75 pM. In addition, in assay [3], the “AlphaLISA potency IC50, Cyno” value is 81 pM. For the same molecule, the “AlphaLISA potency IC50, Guinea pig” value in assay [4] was 300 pM. The Kd in assay [5] amounted to 1.6 nM; in assay [6], 0.7 nM. Also, the koff in assay [7] was 3.3e-05 s⁻¹; in [8], 2.2e-05 s⁻¹; in assay [9], 3.4e-05 s⁻¹.

The Kd is a measure of binding affinity in units of concentration. The koff is the rate constant with which the complex falls apart.
